# Reference: US12415847B2, “ApoM-Fc fusion proteins for treating lung diseases” (Children's Medical Center Corporation, priority 2018, dated 2025)
# B1: Mouse ApoMFc-S1P: Mouse ApoM-mouse IgG1Fc fusion (mApoM-Fc) loaded with S1P (protein)
# chain: NQCPEHSQLTALGMDDTETPEPHLGLWYFIAGAAPTTEELATFDPVDNIVFNMAAGSAPRQLQLRATIRTKSGVCVPRKWTYRLTEGKGNMELRTEGRPDMKTDLFSSSCPGGIMLKETGQGYQRFLLYNRSPHPPEKCVEEFKSLTSCLDFKAFLVTPRNQEACPLSSKWISSASSAKTTPPSVYPLAPGSAAQTNSMVTLGCLVKGYFPEPVTVTWNSGSLSSGVHTFPAVLQSDLYTLSSSVTVPSSTWPSETVTCNVAHPASSTKVDKKIVPRDCGCKPCICTVPEVSSVFIFPPKPKDVLTITLTPKVTCVVVDISKDDPEVQFSWFVDDVEVHTAQTQPREEQFNSTFRSVSELPIMHQDWLNGKEFKCRVNSAAFPAPIEKTISKTKGRPKAPQVYTIPPPKEQMAKDKVSLTCMITDFFPEDITVEWQWNGQPAENYKNTQPIMDTDGSYFVYSKLNVQKSNWEAGNTFTCSVLHEGLHNHHTEKSLSHSPGK
# B2: Free ApoM: free ApoM that is not associated with HDL; 26-kDa protein (protein, UniProt O95445 1-188, looked up)
# Apolipoprotein M: MFHQIWAALLYFYGIILNSIYQCPEHSQLTTLGVDGKEFPEVHLGQWYFIAGAAPTKEELATFDPVDNIVFNMAAGSAPMQLHLRATIRMKDGLCVPRKWIYHLTEGSTDLRTEGRPDMKTELFSSSCPGGIMLNETGQGYQRFLLYNRSPHPPEKCVEEFKSLTSCLDSKAFLLTPRNQEACELSNN
# How the values were obtained:
# S1P1 receptor [1] = target: T1, S1P1 receptor (Homo sapiens, UniProt P21453); assay: Nanobit split luciferase assay, beta-arrestin coupling; type: cell-based; conditions: transfected 293A cells; 1000 nM-0.3 nM S1P
# T1 construct: expressed in transfected cells; host or cells: Human 293A cells, transient PEI transfection
# Method: (§1) FIGS. 5A-5B. Nanobit analysis of Human ApoMFc-S1P, Mouse ApoMFc-S1P, or BSA-S1P (Positive Control). […] BSA-S1P is the well-established activator of the S1PR1 and it was tested whether Human ApoMFc-S1P, Mouse ApoMFc-S1P gave equivalent induction of receptor activation. Data are the means of triplicate wells with the baseline (pre-stimulation) signal subtracted from the final luciferase signal and graphs are expressed with standard deviation.
# (§2) The S1P receptors are members of the G-protein coupled receptor (GPCR) superfamily. Receptor activation is characterized by immediate activation of a G-protein complex (alpha-beta-gamma) that activates multiple intracellular signaling pathways and then secondary activation of coupling to the protein beta-arrestin, which may cause receptor internalization and desensitization as well as activation of other intracellular signaling pathways. […]
# (§3) There are two general forms of this assay. […] Upon activation of the GPCR, the G-Protein alpha-beta-gamma complex […] and Luciferase activity may be detected by measuring emitted light in the presence of luciferase substrate (luciferin). […] It is notable that G-Protein assay results in decreased relative fluorescence with increased receptor activation, while the Beta-arrestin coupling assay results in increased relative fluorescence with increased receptor activation. […]
# Target sequence in this assay (P21453 whole entry): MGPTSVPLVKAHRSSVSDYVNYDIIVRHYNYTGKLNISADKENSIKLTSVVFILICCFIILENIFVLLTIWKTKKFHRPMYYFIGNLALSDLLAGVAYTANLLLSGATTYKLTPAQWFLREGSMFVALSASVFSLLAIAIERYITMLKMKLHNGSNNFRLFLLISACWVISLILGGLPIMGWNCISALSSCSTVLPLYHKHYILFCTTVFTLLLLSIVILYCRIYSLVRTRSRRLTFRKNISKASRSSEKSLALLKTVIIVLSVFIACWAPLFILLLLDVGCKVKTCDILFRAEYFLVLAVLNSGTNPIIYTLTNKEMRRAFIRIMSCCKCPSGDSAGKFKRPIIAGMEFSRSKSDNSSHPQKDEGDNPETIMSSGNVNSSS
# Target sequence in this assay (P49407 whole entry partner): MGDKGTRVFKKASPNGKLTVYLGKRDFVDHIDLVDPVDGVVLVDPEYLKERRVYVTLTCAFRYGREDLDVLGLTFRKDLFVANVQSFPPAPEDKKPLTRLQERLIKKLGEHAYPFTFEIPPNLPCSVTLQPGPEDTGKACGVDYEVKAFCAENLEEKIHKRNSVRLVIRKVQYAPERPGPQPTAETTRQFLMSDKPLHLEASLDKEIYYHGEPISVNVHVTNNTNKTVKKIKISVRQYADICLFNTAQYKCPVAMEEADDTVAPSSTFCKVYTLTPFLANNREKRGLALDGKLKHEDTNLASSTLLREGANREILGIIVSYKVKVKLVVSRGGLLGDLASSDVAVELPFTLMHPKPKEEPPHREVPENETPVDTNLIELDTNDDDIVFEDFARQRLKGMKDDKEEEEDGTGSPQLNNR
# S1P1 receptor [2] = target: T1, S1P1 receptor; assay: Nanobit split luciferase assay, Gi-alpha coupling; type: cell-based; conditions: transfected 293A cells; 1000 nM-0.3 nM S1P
# Method: as §1, §2, §3
# Target sequence in this assay (P21453 whole entry): as the sequence (P21453 whole entry) above
# HUVECs = assay: Trans-endothelial electrical resistance (TEER); type: cell-based, human; conditions: 4 μg/well, 250 nM S1P, 6 hour time point
# Method: FIG. 4. Human and Mouse ApoM-Fc-S1P enhanced endothelial Barrier Protection. Human ApoMFc-S1P (4 μg/well, 250 nM S1P), Mouse ApoMFc-S1P (4 μg/well, 250 nM S1P), or BSA-S1P (250 nM S1P; Positive Control) were analyzed using transepithelial/transendothelial electrical resistance (TEER). The results of TEER analysis of HUVECs at the 6 hour time point are shown. BSA-S1P is the well-established activator of the S1PR1 and it was tested whether Human ApoMFc-S1P, Mouse ApoMFc-S1P gave equivalent induction of receptor activation. All results are normalized to individual well baselines (baseline=1), expressed as the mean of triplicate wells, and Standard Deviation (S.D.) is expressed as gray vertical bars over the course of the data set. […]
# 0.1 ml of Human Umbilical Vascular Endothelial Cells (HUVECS; 200,000 cells/ml in EGM-2 culture medium, Lonza) were seeded into a 96 well electrical conductance chamber (ECIS Cultureware; Applied Biophysics, Inc) pre-coated with 1% Fibronectin resuspended in Saline. After overnight incubation at 37° C./5% CO2, the 96-well plate was placed on the ECIS reader (Applied Biophysics; Ztheta 96-well array station) and baseline resistance was established which represents the quality of Endothelial junction strength or Endothelial barrier function. […]
# [3] = free ApoM not associated with HDL; Faber et al. 2006; cited from earlier work
Molecule,activation of beta-arrestin coupling to the S1P1 receptor (S1P1 receptor [1]),activation of Gi-alpha coupling to the S1P1 receptor (S1P1 receptor [2]),endothelial barrier protection (TEER) (HUVECs),half-life [3]
B1,equivalently activates,equivalently activates,enhance endothelial Barrier Protection,
B2,,,,extremely short
